Results from patent publication US20210403538A1 (published 2021).

Experiments:
EBOV GP [change] [1] = target: T1, EBOV GP [change] (Zaire ebolavirus (EBOV), strain Makona); assay: BLI
EBOV GP [change] [2] = target: T1, EBOV GP [change]; assay: ELISA
BDBV GP [change] = BDBV GP [change] (Bundibugyo ebolavirus (BDBV), strain …); assay: ELISA

Binder | Kd (EBOV GP [change] [1]) [nM] | EC50 (EBOV GP [change] [2]) [ng/mL] | EC50 (BDBV GP [change]) [ng/mL]
rEBOV-520 LALA (antibody, V domains shown) VH: QVQLQESGPGLGKPSETLSLSCTVSGASIRGYFWNWIRQPPGKGLEWIGYIHSTGSTNYNPSLKSRVTISVDTSKNQVSLNVNSVTAADTAVYFCARGAWNVATVYYYYGMDVWGQGTLVTVSS VL: EIVLTQSPGTLSLSPGERATLSCRASQSVSSSYFAWYQQKPGQAPRLLISGTSTRAPGIPDRFSGSGSGTDFTLTISRLEPEDFAVYFCQQYGNSLYTFGQGTKLEIK | 2.12 | 18 | 45
rEBOV-548 (antibody, V domains shown) VH: QVQVEESGGGVVQPGGSLRLSCAASGFMFSNYGMHWVRQAPGKGLEWMAFIRYDDSKKFYADSVKGRFTISRDNSKNTLYLQMNSLRAEDTALYYCAKELLQVYTSAWGEGHSYYYALDVWGLGTAVTVSS VL: DIQMTQSPSSVSASVGDRVTITCRASQDISNWLAWYQQKPGKAPELLIYTASILQSGVSSRFSGSGSGTDFTLTISSLQPEDSATYYCQQGKSFPYTFGQGTKLEIK | 0.041 | 6 | 7
EBOV-515 (antibody, V domains shown) VH: QVQLQESGPGLVKPSQTLSLTCTVSGGSINSAGYYWTWIRQHPGKGLEWIGYIDYTGRTYYNPSLESRVIISIDTSKNHFSLRLTSVSAADTAVYYCARESSWVSELGRDNWGQGTLVTVSS VL: EIVMTQSPATLPVSPGEGATLSCRASQSVFTNLAWYQQKPGQAPRLLIYDASTRATGIPARFSGSGSGTEFTLTISSLQSEDFAVYYCQQYNNWPRTYGQGTRVEVK | 0.53 | – | –
rEBOV-542 (antibody, V domains shown) VH: EVQLVESGGGLVQPGGSLRLSCAASGFTVSNNYMSWVRQAPGKGLEWVSLIYTSVTTYYADSVKGRFTISRDNSKNTLYLQMNSLRAEDTAVYYCARELGNWSYGVSYWGRGTLVTVSS VL: SYELTQPPSVSVSPGQTARITCSGDALPKQYAYWYQQKPGQAPVLVIYKDSERPSGIPERFSGSSSGTTVTLTISGVQAEDGADYYCQSADGSGTYPVVFGGGTKLTVL | 0.26 | 11 | 8
